As a reminder, the EC50 is the concentration at which the effect is half-maximal. A lower EC50 goes with higher potency in that assay.

Like-named read-outs stand apart in the source and are kept apart here.

EC50 data for 6 molecules are collected here from US20250051444A1 (published 2025).

What all share (assay): FACS binding to CHO cells
In general terms: Flow cytometry measures light scatter and fluorescence of single cells or particles in a stream.

The target of test [1] is T1, human LRRC15 (leucine-rich repeat containing protein 15) (human, UniProt Q8TF66 22-581).
T1 chain: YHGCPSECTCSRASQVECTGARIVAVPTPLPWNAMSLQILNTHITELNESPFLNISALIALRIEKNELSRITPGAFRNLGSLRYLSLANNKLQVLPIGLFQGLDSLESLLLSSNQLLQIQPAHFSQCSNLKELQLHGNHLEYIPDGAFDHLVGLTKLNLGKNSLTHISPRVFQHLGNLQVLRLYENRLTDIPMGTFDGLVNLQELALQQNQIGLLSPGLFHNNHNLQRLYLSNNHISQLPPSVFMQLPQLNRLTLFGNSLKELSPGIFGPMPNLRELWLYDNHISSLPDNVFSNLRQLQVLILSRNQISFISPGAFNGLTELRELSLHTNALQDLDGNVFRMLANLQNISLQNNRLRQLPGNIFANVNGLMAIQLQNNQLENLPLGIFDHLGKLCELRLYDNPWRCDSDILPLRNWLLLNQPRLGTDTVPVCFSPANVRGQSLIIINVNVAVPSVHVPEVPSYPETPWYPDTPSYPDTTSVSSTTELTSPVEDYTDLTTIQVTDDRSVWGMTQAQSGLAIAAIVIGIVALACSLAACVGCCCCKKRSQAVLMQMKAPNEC

Test [2] addresses T2, cynomolgus LRRC15 (cynomolgus, UniProt G7NYR2 22-581).
T2 chain: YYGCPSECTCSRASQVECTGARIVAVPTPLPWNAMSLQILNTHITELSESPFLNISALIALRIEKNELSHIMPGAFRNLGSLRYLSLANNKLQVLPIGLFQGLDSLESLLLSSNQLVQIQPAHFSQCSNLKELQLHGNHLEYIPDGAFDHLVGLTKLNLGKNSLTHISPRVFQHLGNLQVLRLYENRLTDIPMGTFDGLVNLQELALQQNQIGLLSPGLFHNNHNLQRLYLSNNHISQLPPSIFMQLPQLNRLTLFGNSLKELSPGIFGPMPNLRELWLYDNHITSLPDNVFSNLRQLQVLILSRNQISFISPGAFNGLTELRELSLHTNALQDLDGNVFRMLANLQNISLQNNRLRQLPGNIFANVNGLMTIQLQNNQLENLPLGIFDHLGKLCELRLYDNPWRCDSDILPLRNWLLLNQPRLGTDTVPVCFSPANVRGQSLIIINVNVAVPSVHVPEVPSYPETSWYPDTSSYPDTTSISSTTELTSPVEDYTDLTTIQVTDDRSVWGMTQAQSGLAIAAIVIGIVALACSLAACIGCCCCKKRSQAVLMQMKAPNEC

The target of test [3] is T2, cynomolgus LRRC15.
Test [4] deals with T1, human LRRC15 (leucine-rich repeat …).

B1: L15-06 (antibody, V domains shown)
VH: EVQLLESGGGLVQPGGSLRLSCAASGFTFSSYYMSWVRQAPGKGLEWVADISVSGSYTNYADSVKGRFTISRDNSKNTLYLQMNSLRAEDTAVYYCARIGSYRSFFSTDDGDSLDYWGQGTLVTVSS
VL: not shown
For B1, the values for the EC50 (in test [1]; with cynomolgus LRRC15 [2]) were 0.376 nM and 0.239 nM, respectively.

B2: 315-L06C08 (bispecific antibody)
chain: not shown
heavy: QVQLVESGGGLVKPGGSLRLSCAASGFTFSDYYMSWIRQAPGKGLEWVSDISVSSSYTNYADSVKGRFTISRDNAKNSLYLQMNSLRAEDTAVYYCARLGGYRSFFSTDDGDSLDYWGQGTLVTVSSASTKGPSVFPLAPSSKSTSGGTAALGCLVKDYFPEPVTVSWNSGALTSGVHTFPAVLQSSGLYSLSSVVTVPSSSLGTQTYICNVNHKPSNTKVDKRVEPKSCDKTHTCPPCPAPEFEGGPSVFLFPPKPKDTLMISRTPEVTCVVVDVSHEDPEVKFNWYVDGVEVHNAKTKPREEQYNSTYRVVSVLTVLHQDWLNGKEYKCKVSNKALPASIEKTISKAKGQPREPQVCTLPPSRDELTKNQVSLTCLVEGFYPSDIAVEWESNGQPENNYKTTPPVLDSDGSFFLYSDLTVDKSRWQQGNVFSCSVMHEALHNHYTQESLSLSPGK
light: not shown
On to B2, for which the EC50 in the test with cynomolgus LRRC15 [3] came out at 0.627 nM; in test [4], 0.488 nM.

B3: L15-08 (antibody, V domains shown)
VH: QVQLVESGGGLVKPGGSLRLSCAASGFTFSDYYMSWIRQAPGKGLEWVSDISVSSSYTNYADSVKGRFTISRDNAKNSLYLQMNSLRAEDTAVYYCARLGGYRSFFSTDDGDSLDYWGQGTLVTVSS
VL: not shown
B3: the EC50 in test [1] amounted to 0.633 nM; in the test with cynomolgus LRRC15 [2], 0.19 nM.

B4: 153-L06C (bispecific antibody)
chain 1: not shown
chain 2: EPKSCDKTHTCPPCPAPEFEGGPSVFLFPPKPKDTLMISRTPEVTCVVVDVSHEDPEVKFNWYVDGVEVHNAKTKPREEQYNSTYRVVSVLTVLHQDWLNGKEYKCKVSNKALPASIEKTISKAKGQPREPQVCTLPPSRDELTKNQVSLTCLVEGFYPSDIAVEWESNGQPENNYKTTPPVLDSDGSFFLYSDLTVDKSRWQQGNVFSCSVMHEALHNHYTQESLSLSPGK
Take B4: the EC50 in the test with cynomolgus LRRC15 [3] is 1.48 nM; in test [4], 1.15 nM.

B5: L15-07 (antibody, V domains shown)
VH: QVQLVQSGAEVKKPGSSVKVSCKASGGTFSTYAISWVRQAPGQGLEWMGGITPMFGTPNYAQKFQGRVTITADESTSTAYMELSSLRSEDTAVYYCARGDWYDYHFDYWGQGTLVTVSS
VL: QSALTQPASVSGSPGQSITISCTGTSSDVGGYNYVSWYQQHPGKAPKLMIYEVSNRPSGVSNRFSGSKSGNTASLTISGLQAEDEADYYCQSYANRDNFVVFGGGTKLTVL
For the molecule B5, the EC50 in test [1] amounted to 0.259 nM; with cynomolgus LRRC15 [2] it was 0.277 nM.

B6: L15-03 (antibody, V domains shown)
VH: QVQLVQSGAEVKKPGSSVKVSCKASGGTFSSYTISWVRQAPGQGLEWMGGIIPMFGTANYAQKFQGRVTITADESTSTAYMELSSLRSEDTAVYYCARGVALLATDFDYWGQGTLVTVSS
VL: QSALTQPASVSGSPGQSITISCTGTSSDVGGYNYVSWYQQHPGKAPKLMIYEVSNRPSGVSNRFSGSKSGNTASLTISGLQAEDEADYYCQSWTHDNSVVFGGGTKLTVL
As to B6, the EC50 in test [1] is 0.285 nM; with cynomolgus LRRC15 [2], 0.165 nM.
